The text below walks through data of the supplement of paper PMC9112550, “Optimization of the antimicrobial peptide Bac7 by deep mutational scanning” (BMC Biology, 2022).

The series deals with Escherichia coli TOP10. Nature of the series: shrunken log2 fold change of peptide-encoding DNA abundance (4.5 h post-induction vs induction); higher = less antimicrobial activity (less host growth inhibition). As to conditions: time post-induction: 4.5 h; library: site-saturation at positions 5, 18, 19, 20.
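Further: peptides expressed intracellularly from a pBAD plasmid library in pooled LB shake-flask culture, induced with 0.3% L-arabinose, DNA abundance read by NGS, three biological replicates, DESeq2 with apeglm shrinkage.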

For the sequence RRIRKRPPRLPRPRPRPDLQPRP, the “shrunken log2 fold change” value amounted to 0.0789.
On to RRIRARPPRLPRPRPRPISKPRP, for which the “shrunken log2 fold change” value was -0.401.
Regarding RRIRFRPPRLPRPRPRPSDLPRP, the “shrunken log2 fold change” value is -0.0388.
RRIRFRPPRLPRPRPRPGLKPRP: the “shrunken log2 fold change” value is 0.0731.
In the case of RRIRTRPPRLPRPRPRPLIMPRP, the “shrunken log2 fold change” value is -0.718.
Regarding RRIRIRPPRLPRPRPRPTKTPRP, the “shrunken log2 fold change” value turned out to be 0.12.
For RRIRERPPRLPRPRPRPEAWPRP the value was 0.0366; for RRIRIRPPRLPRPRPRPKNWPRP, -0.035.
On to RRIRWRPPRLPRPRPRPCLEPRP, for which the “shrunken log2 fold change” value is 0.012.
For RRIRYRPPRLPRPRPRPIARPRP the value was 0.00902; for RRIRPRPPRLPRPRPRPVRNPRP, 0.22; for RRIRDRPPRLPRPRPRPYTMPRP, -0.0014.
Regarding RRIRGRPPRLPRPRPRPDPNPRP, the “shrunken log2 fold change” value stood at 0.522.
Turning to RRIRERPPRLPRPRPRPSNKPRP, the “shrunken log2 fold change” value is -0.811.
For RRIRHRPPRLPRPRPRPNEAPRP the value was 0.0232; for RRIRHRPPRLPRPRPRPQNNPRP, -0.731.
Consider RRIRIRPPRLPRPRPRPYGAPRP, for which the “shrunken log2 fold change” value was -0.199.
For RRIRIRPPRLPRPRPRPSWEPRP the value was -0.621; for RRIRVRPPRLPRPRPRPNITPRP, -0.808; for RRIRDRPPRLPRPRPRPDYIPRP, 0.0998.
On to RRIRYRPPRLPRPRPRPPSVPRP, for which the “shrunken log2 fold change” value was -0.209.
For RRIRTRPPRLPRPRPRPKWGPRP the value was 0.118; for RRIRNRPPRLPRPRPRPLPEPRP, -0.00875.
As for RRIRPRPPRLPRPRPRPFDEPRP, the “shrunken log2 fold change” value was -0.0622.
For RRIRWRPPRLPRPRPRPTACPRP the value was 0.317; for RRIRDRPPRLPRPRPRPTKCPRP, -0.0929.
The result for RRIRQRPPRLPRPRPRPLCDPRP reads -0.131.
For RRIRLRPPRLPRPRPRPGMWPRP the value was 0.164; for RRIRDRPPRLPRPRPRPYNHPRP, -0.704.
As for RRIRTRPPRLPRPRPRPCCHPRP, the “shrunken log2 fold change” value is -0.0132.
For RRIRRRPPRLPRPRPRPLVPPRP the value was 0.175; for RRIRQRPPRLPRPRPRPMTEPRP, -0.0192; for RRIRTRPPRLPRPRPRPQEKPRP, -0.0148.
For RRIRERPPRLPRPRPRPNEVPRP the value was 0.0321; for RRIRCRPPRLPRPRPRPMRCPRP, 0.404.
For RRIRNRPPRLPRPRPRPDRHPRP the value was 0.0343; for RRIRSRPPRLPRPRPRPVTWPRP, 0.0066.
For RRIRWRPPRLPRPRPRPFPQPRP, the “shrunken log2 fold change” value stood at 0.0229.
Take RRIRFRPPRLPRPRPRPCGRPRP: the “shrunken log2 fold change” value is 0.156.
Regarding RRIRFRPPRLPRPRPRPTIGPRP, the “shrunken log2 fold change” value was -0.0631.
Consider RRIRERPPRLPRPRPRPQEVPRP, for which the “shrunken log2 fold change” value is -0.0156.
For RRIRIRPPRLPRPRPRPINMPRP the value was -0.956.
For RRIRRRPPRLPRPRPRPGTWPRP the value was 0.0793.
For RRIRLRPPRLPRPRPRPYQGPRP the value was -0.388.
As for RRIRTRPPRLPRPRPRPDFDPRP, the “shrunken log2 fold change” value is -0.375.
The result for RRIRARPPRLPRPRPRPDKIPRP reads 0.299.
For RRIRGRPPRLPRPRPRPGERPRP the value was 0.731; for RRIRLRPPRLPRPRPRPLLKPRP, -0.163.
As for RRIRMRPPRLPRPRPRPMLNPRP, the “shrunken log2 fold change” value was -0.0171.
For the sequence RRIRSRPPRLPRPRPRPSVSPRP, the “shrunken log2 fold change” value was -0.0446.
The result for RRIRERPPRLPRPRPRPGQSPRP reads 0.0977; that for RRIRNRPPRLPRPRPRPKEHPRP, -0.0991.
Regarding RRIRERPPRLPRPRPRPPNIPRP, the “shrunken log2 fold change” value was -0.207.
Turning to RRIRVRPPRLPRPRPRPTVGPRP, the “shrunken log2 fold change” value was determined as 0.553.
For RRIRFRPPRLPRPRPRPNDYPRP, the “shrunken log2 fold change” value was -0.355.
For RRIRCRPPRLPRPRPRPYKCPRP the value was -0.273.
For RRIRWRPPRLPRPRPRPFQCPRP the value was -0.0406; for RRIRLRPPRLPRPRPRPERCPRP, 0.00413.
The result for RRIRIRPPRLPRPRPRPQCPPRP reads -0.472; that for RRIRYRPPRLPRPRPRPRRVPRP, 0.00201.
As to RRIRFRPPRLPRPRPRPQQAPRP, the “shrunken log2 fold change” value turned out to be 0.366.
On to RRIRMRPPRLPRPRPRPVCEPRP, for which the “shrunken log2 fold change” value amounted to 0.353.
Regarding RRIRKRPPRLPRPRPRPWIGPRP, the “shrunken log2 fold change” value was 0.0664.
As to RRIRSRPPRLPRPRPRPMTAPRP, the “shrunken log2 fold change” value is -0.0379.
For RRIRDRPPRLPRPRPRPEYSPRP the value was 0.0929.
The result for RRIRLRPPRLPRPRPRPCRMPRP reads -0.0411; that for RRIRQRPPRLPRPRPRPDNRPRP, -0.00104; that for RRIRQRPPRLPRPRPRPDDAPRP, -0.0705.
RRIRKRPPRLPRPRPRPSREPRP: the “shrunken log2 fold change” value was determined as 0.555.
For RRIRDRPPRLPRPRPRPVALPRP the value was 0.816.
For RRIRQRPPRLPRPRPRPYNEPRP the value was -0.184; for RRIRGRPPRLPRPRPRPGHNPRP, 0.0636.
On to RRIRDRPPRLPRPRPRPVQLPRP, for which the “shrunken log2 fold change” value is 0.0283.
The result for RRIRSRPPRLPRPRPRPSACPRP reads -0.0945; that for RRIRCRPPRLPRPRPRPFSNPRP, -0.117.
The result for RRIRYRPPRLPRPRPRPAFFPRP reads -0.405; that for RRIRRRPPRLPRPRPRPGYLPRP, -0.12; that for RRIRRRPPRLPRPRPRPDIDPRP, 0.0367.
RRIRKRPPRLPRPRPRPVDNPRP: the “shrunken log2 fold change” value was -0.0705.
With RRIRHRPPRLPRPRPRPDKWPRP, the “shrunken log2 fold change” value is -0.395.
The result for RRIRARPPRLPRPRPRPHAKPRP reads -0.0556; that for RRIRERPPRLPRPRPRPRLNPRP, -0.156.
On to RRIRKRPPRLPRPRPRPYVHPRP, for which the “shrunken log2 fold change” value was -0.431.
Take RRIRQRPPRLPRPRPRPHTDPRP: the “shrunken log2 fold change” value is -0.228.
Take RRIRIRPPRLPRPRPRPLFSPRP: the “shrunken log2 fold change” value was -0.423.
For RRIRCRPPRLPRPRPRPSIGPRP the value was -0.098; for RRIRDRPPRLPRPRPRPRPNPRP, 0.323; for RRIRWRPPRLPRPRPRPKRAPRP, 0.797.
In the case of RRIRFRPPRLPRPRPRPSSNPRP, the “shrunken log2 fold change” value was -0.715.
In the case of RRIRDRPPRLPRPRPRPQYLPRP, the “shrunken log2 fold change” value is -0.248.
On to RRIRFRPPRLPRPRPRPFYYPRP, for which the “shrunken log2 fold change” value was -0.777.
For RRIRSRPPRLPRPRPRPCANPRP the value was -0.113; for RRIRMRPPRLPRPRPRPGIYPRP, -0.075.
For RRIRHRPPRLPRPRPRPGYHPRP, the “shrunken log2 fold change” value is -0.126.
The result for RRIRERPPRLPRPRPRPCLPPRP reads -0.259; that for RRIRWRPPRLPRPRPRPTHIPRP, -0.067; that for RRIRERPPRLPRPRPRPTLLPRP, -0.137.
The result for RRIRTRPPRLPRPRPRPHWHPRP reads -0.576; that for RRIRDRPPRLPRPRPRPPILPRP, -0.147; that for RRIRRRPPRLPRPRPRPIEHPRP, -0.00775.
For RRIRRRPPRLPRPRPRPWAFPRP the value was 0.00699; for RRIRVRPPRLPRPRPRPNTSPRP, -0.391.
Take RRIRTRPPRLPRPRPRPAEIPRP: the “shrunken log2 fold change” value was 0.083.
The result for RRIRHRPPRLPRPRPRPKKQPRP reads -0.0264; that for RRIRMRPPRLPRPRPRPFSRPRP, 0.0409.
For the sequence RRIRCRPPRLPRPRPRPGTPPRP, the “shrunken log2 fold change” value is 0.0685.
RRIRGRPPRLPRPRPRPIVWPRP: the “shrunken log2 fold change” value worked out at 0.381.
With RRIRVRPPRLPRPRPRPEFMPRP, the “shrunken log2 fold change” value is -0.0942.
Regarding RRIRRRPPRLPRPRPRPKFMPRP, the “shrunken log2 fold change” value amounted to 0.122.
Turning to RRIRLRPPRLPRPRPRPIMTPRP, the “shrunken log2 fold change” value is -0.397.
On to RRIRDRPPRLPRPRPRPIELPRP, for which the “shrunken log2 fold change” value was determined as 0.0698.
The result for RRIRKRPPRLPRPRPRPGGPPRP reads 0.453.
In the case of RRIRFRPPRLPRPRPRPVLAPRP, the “shrunken log2 fold change” value amounted to 0.239.
For the sequence RRIRKRPPRLPRPRPRPLSIPRP, the “shrunken log2 fold change” value was -0.0931.
The result for RRIRARPPRLPRPRPRPMGFPRP reads -0.154.
Turning to RRIRTRPPRLPRPRPRPCEAPRP, the “shrunken log2 fold change” value came out at 0.114.
As to RRIRARPPRLPRPRPRPNQSPRP, the “shrunken log2 fold change” value came out at 0.0591.
The result for RRIRDRPPRLPRPRPRPPHDPRP reads 2.35; that for RRIRPRPPRLPRPRPRPWGWPRP, 0.149.
The result for RRIRKRPPRLPRPRPRPRIFPRP reads -0.0494.
For RRIRFRPPRLPRPRPRPMWCPRP the value was 0.0155; for RRIRDRPPRLPRPRPRPGGAPRP, 0.806; for RRIRYRPPRLPRPRPRPCHIPRP, -0.0462.
As to RRIRERPPRLPRPRPRPIKVPRP, the “shrunken log2 fold change” value was -0.0179.
As to RRIRVRPPRLPRPRPRPYMWPRP, the “shrunken log2 fold change” value is -0.48.
